Consider five molecules from PMC11630628 (Molecular Plant, 2024).

Ends that are not written are not given here. * marks the point of attachment. 5FAM = O=C1OC2(c3ccc(O)cc3Oc3cc(O)ccc32)c2ccc(C(=O)*)cc21

Experiment [1] deals with leaf senescence in Arabidopsis. Particulars: ref Gully et al., 2015; cited from earlier work. The text has this:
Senescence, a crucial biological event in plant development, involves the coordinated breakdown of cellular components to recycle nutrients, aiding adaptation to changing environments. It optimizes nutrient storage and reuse, particularly in leaves, the primary photosynthetic organs. Initiation of leaf senescence prompts various physiological changes, including chlorophyll (Chl) reduction and macromolecule degradation, enabling nutrient recycling that supports the growth of seeds and fruits ([Yang et al., 2014]; [Kim et al., 2018]; [Woo et al., 2019]; [Guo et al., 2021]). Efficient senescence ...

In experiment [2] the test system is ANJEA-FERONIA (ANJ–FER) receptor complex. Details: method as in Liu et al., 2021. Particulars: ref Liu et al., 2021; cited from earlier work.
Experiment [3] concerns FERONIA (FER) / EFR/FLS2-BAK1 complex. Details: method as in Stegmann et al., 2017. Conditions: ref Stegmann et al., 2017; cited from earlier work.
In experiment [4] the target is T1, MIK2 ectodomain (MIK2^LRR, residues 45-707) fused with a 6x His-MBP tag (Arabidopsis thaliana, UniProt Q8VZG8 45-707).
T1 construct: ectodomain residues 45-707, without the putative N-terminal signal peptide; Cloned into pET41 with a 6x His-MBP tag; no cleavage of the tag is told; also called His-MBP-tagged MIK2^LRR; ectodomain of MIK2; source: E. coli BL21, purified (Mag-Beads His-Tag Protein Purification Kit)
T1 sequence (looked up): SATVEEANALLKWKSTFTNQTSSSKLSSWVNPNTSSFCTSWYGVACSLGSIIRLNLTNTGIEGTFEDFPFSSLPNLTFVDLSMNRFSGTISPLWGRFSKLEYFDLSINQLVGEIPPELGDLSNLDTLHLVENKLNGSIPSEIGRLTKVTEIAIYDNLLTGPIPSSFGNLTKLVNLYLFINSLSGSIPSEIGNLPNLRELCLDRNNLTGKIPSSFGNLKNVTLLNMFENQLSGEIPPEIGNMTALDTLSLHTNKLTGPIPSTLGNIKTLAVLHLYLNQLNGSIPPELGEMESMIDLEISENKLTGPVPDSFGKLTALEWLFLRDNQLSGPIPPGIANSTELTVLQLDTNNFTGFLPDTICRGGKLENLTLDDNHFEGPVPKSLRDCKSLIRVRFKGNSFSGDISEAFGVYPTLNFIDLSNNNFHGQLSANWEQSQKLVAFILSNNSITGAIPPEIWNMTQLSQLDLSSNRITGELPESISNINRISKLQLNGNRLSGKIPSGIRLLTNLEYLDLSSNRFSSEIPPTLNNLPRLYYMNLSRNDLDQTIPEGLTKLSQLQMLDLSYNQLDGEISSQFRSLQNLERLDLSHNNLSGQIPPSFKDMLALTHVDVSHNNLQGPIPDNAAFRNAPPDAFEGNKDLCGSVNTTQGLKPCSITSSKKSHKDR
Description: MST; Monolith NT.115; 0.05 μM 5-FAM-labelled peptide, MIK2^LRR diluted from 20 μM in ddH2O, 10 min at room temperature; 20% LED power, 40% MST power. Particulars: both partners purified.

The target in experiment [5] is T1, MIK2 ectodomain (MIK2^LRR, residues …). In words: MST; Figure 5F, titrations in the absence of the competing peptide; conditions of these titrations not told apart from the others. Particulars: both partners purified.
For experiment [6], the target named is T2, MIK2 ectodomain (MIK2^LRR, residues 45-707) fused with a 6x His-MBP tag (Arabidopsis thaliana, UniProt Q8VZG8 45-707).
T2 chain: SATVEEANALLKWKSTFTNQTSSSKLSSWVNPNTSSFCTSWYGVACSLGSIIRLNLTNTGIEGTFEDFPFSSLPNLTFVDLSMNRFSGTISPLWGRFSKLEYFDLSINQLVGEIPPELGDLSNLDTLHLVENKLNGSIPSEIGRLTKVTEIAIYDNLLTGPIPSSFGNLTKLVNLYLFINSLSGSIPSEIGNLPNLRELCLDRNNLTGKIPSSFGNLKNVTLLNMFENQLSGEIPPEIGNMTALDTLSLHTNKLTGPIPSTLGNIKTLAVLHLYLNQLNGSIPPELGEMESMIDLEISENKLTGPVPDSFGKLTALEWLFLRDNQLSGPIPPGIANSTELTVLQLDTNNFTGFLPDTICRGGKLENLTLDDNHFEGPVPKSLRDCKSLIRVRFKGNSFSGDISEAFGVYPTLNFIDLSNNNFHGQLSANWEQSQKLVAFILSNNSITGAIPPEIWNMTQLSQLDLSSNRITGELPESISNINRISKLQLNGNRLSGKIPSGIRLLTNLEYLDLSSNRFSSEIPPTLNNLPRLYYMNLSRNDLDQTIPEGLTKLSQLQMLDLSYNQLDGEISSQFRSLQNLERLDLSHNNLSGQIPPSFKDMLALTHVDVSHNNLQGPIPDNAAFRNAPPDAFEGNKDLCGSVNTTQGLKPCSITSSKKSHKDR
Description: MST; in presence of competitor SCOOP12.

For experiment [7], the target named is T2, MIK2 ectodomain (MIK2^LRR, residues …). In words: MST; in presence of competitor SCOOP10.
In experiment [8] the target is T3, MIK2 ectodomain (MIK2^LRR, residues 45-707) fused with a 6x His-MBP tag (Arabidopsis thaliana), Q8VZG8.
T3 chain: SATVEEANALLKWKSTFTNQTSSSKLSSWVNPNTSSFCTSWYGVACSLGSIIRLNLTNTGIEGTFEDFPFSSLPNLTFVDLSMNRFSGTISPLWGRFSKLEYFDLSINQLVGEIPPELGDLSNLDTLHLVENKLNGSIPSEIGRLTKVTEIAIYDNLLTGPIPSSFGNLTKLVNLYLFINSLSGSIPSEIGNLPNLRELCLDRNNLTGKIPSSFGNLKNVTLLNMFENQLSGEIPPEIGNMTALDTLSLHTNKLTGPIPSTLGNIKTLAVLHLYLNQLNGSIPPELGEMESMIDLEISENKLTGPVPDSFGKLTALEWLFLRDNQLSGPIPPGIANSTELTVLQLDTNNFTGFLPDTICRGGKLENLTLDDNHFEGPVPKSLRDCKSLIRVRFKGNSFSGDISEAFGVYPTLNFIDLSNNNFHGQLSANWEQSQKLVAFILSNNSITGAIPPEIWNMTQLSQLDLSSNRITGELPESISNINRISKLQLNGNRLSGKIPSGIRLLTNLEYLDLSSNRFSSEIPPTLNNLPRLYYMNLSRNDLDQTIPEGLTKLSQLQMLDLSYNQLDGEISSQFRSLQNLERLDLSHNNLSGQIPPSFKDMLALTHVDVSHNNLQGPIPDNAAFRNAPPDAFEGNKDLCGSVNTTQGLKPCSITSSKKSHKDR
In words: MST; Figure 5F, competition: 0.5 μM FAM-SCOOP10 and 15 μM MIK2^LRR mixed 10 min at room temperature in the dark, then a range of concentrations of SCOOP12, 10 min; 20% LED power, 20% MST power; the reverse set-up (SCOOP10 on MIK2-SCOOP12) is not described.

For the molecule “plant elicitor peptide PEP1 (ATKVKAKQRGKEKVSSGRPGQHN; Elicitor peptide 1; UniProt Q9LV87 70-92, looked up) [plant elicitor peptide, one of the first plant phytocytokines]”, the leaf senescence modulation result in experiment [1] is on record as “function as a leaf senescence modulator in Arabidopsis”.

On to “RALF23: RAPID ALKALINIZATION FACTOR (RALF) peptide (ATRRYISYGALRRNTIPCSRRGASYYNCRRGAQANPYSRGCSAITRCRRS; Protein RALF-like 23; UniProt Q9LUS7 89-138, looked up)”, for which, in experiment [2], the “competition with POLLEN COAT PROTEIN B-class peptides” value was “compete with the POLLEN COAT PROTEIN B-class peptides”. In addition, in experiment [3], the “effect on FER-mediated receptor complex assembly” value was “suppresses the formation of the EFR/FLS2-BAK1 complex”. Consider 5FAM-PNGDIFTGPSGSGHGGGR [SCOOP10 peptide labeled with FAM at the N-terminus (5'-FAM-SCOOP10)], for which the results for the Kd in experiment [4], in experiment [5] and in experiment [6] were 13.5 ± 1.47 nM, 753 nM and 279000 nM, respectively.

Take 5FAM-PVRSSQSSQAGGR [SCOOP12 peptide labeled with 5-FAM at the N terminus (FAM-SCOOP12)]: the Kd in experiment [4] is 22 ± 3.02 nM; in experiment [7], 1160 nM. As for PVRSSQSSQAGGR (modifications not checked) [SCOOP12 peptide (unlabeled, used as competitor), B3H7I1 44-78], the KD printed for the inhibition of the SCOOP10-MIK2 interaction by SCOOP12 in experiment [8] came out at 279000 nM.

What is called Kd is the concentration at which binding is half-saturated.
